Source: patent publication US20220031820

B1: recombinant GzmK (in vitro syndecan-1 cleavage assay) (enzyme, UniProt P49863 27-264, looked up, species assumed)
Granzyme K: IIGGKEVSPHSRPFMASIQYGGHHVCGGVLIDPQWVLTAAHCQYRFTKGQSPTVVLGAHSLSKNEASKQTLEIKKFIPFSRVTSDPQSNDIMLVKLQTAAKLNKHVKMLHIRSKTSLRSGTKCKVTGWGATDPDSLRPSDTLREVTVTVLSRKLCNSQSYYNGDPFITKDMVCAGDAKGQKDSCKGDSGGPLICKGVFHAIVSGGHECGVATKPGIYTLLTKKYQTWIKSNLVPPHTN
B2: recombinant GzmA (enzyme, UniProt P12544 29-262, looked up, species assumed)
Granzyme A: IIGGNEVTPHSRPYMVLLSLDRKTICAGALIAKDWVLTAAHCNLNKRSQVILGAHSITREEPTKQIMLVKKEFPYPCYDPATREGDLKLLQLMEKAKINKYVTILHLPKKGDDVKPGTMCQVAGWGRTHNSASWSDTLREVNITIIDRKVCNDRNHYNFNPVIGMNMVCAGSLRGGRDSCNGDSGSPLLCEGVFRGVTSFGLENKCGDPRGPGVYILLSKKHLNWIIMTIKGAV

Tested on: T1, recombinant syndecan-1
T1 sequence (P18827 whole entry, species assumed, looked up): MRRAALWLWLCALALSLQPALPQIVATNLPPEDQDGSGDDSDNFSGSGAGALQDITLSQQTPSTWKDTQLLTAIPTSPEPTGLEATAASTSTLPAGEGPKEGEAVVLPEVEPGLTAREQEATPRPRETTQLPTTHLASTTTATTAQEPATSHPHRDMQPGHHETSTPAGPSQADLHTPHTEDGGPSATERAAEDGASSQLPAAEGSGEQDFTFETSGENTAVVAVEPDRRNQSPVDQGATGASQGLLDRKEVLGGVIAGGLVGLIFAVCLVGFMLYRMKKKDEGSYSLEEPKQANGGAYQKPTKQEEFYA

Protein	in vitro syndecan-1 cleavage assay (coomassie gel); GzmK 500 nM, syndecan-1 0.7 ug	in vitro syndecan-1 cleavage assay (coomassie gel); GzmA 500 nM, syndecan-1 0.7 ug
B1	syndecan-1 was cleaved by all three granzymes	
B2		syndecan-1 was cleaved by all three granzymes
